Where “and” joins values, the source holds several entries; their conditions need not be identical. Identical values can stand only once.
Molecular target: SARS-CoV-2 S glycoprotein, prefusion S ectodomain (trimeric SARS-CoV-2 spike) (SARS-CoV-2 | bacteriophage T4) (UniProt P0DTC2)
Assay: SPR; Biacore T200; SARS-CoV-2 S (50 ug/ml) captured on Ni2+-loaded NTA chip; ACE2 (His-Tag removed) as analyte, 200 nM to 3.125 nM in triplicate, 50 uL/min, HBS P+ buffer; association 300 s, dissociation 600 s; 1:1 binding model

## soluble recombinant ACE2 ectodomain, un-engineered (wild-type form, WT) (from UniProt Q9BYF1 18-626) (domain or fragment)
  Kd: 50 to 100 nM and 76 nM

## soluble ACE2 expressed in the presence of 20 uM kifunensine (Kif ACE2) (from UniProt Q9BYF1 18-626) (domain or fragment)
  increase of KD against WT ACE2: 50%

## WT soluble ACE2 treated with alpha2-3,6,8 sialidase (from UniProt Q9BYF1 18-626) (domain or fragment)
  decrease of KD against WT ACE2: 30 % lower
